One series relates to RSV F antibody (11A9). The series can be described thus: Binding of epitope II of RSV F antigen mutants by flow cytometry. The conditions noted are these: epitope II, antibody 11A9. The procedure, abridged: (§1)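 293T cells were transfected with mRNA-LNP (300 ng mRNA) encoding the RSV F mutants and harvested after 16 h. Cells were stained with fluorescent 3C12 (pre-F-specific epitope Φ) or 11A9 (epitope II, pre-F and post-F) for 2 h at 4 °C in the dark, then washed and read by flow cytometry on 1×10^4 cells per measurement.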
On the technique in general: In flow cytometry, cells or beads pass a laser one at a time.

In series [1] the test system is RSV pre-F antibody (3C12). The series can be described thus: Binding of epitope Φ of RSV F antigen mutants by flow cytometry. To be noted: for RSV pre-F antibody (3C12) Epitope Φ (%) binding rate: flow cytometry; for Φ/II (%): ratio of epitope Φ (3C12) to epitope II (11A9) binding rate. The method, boiled down:
as §1

Series [2] relates to RSV pre-F antibody (3C12). It is filed as physicochemical. To be noted: ELISA binding to 3C12; for Stress resistance parameter, Osmotic pressure (mM) 3000: high osmotic pressure 3000 mM; for Stress resistance parameter, Osmotic pressure (mM) 3000 / Stress resistance parameter, Osmotic pressure (mM) 10: room temperature; for Stress resistance parameter, Osmotic pressure (mM) 3000 / Stress resistance parameter, Osmotic pressure (mM) 10 / Stress resistance parameter, pH 3.5 / Stress resistance parameter, pH 10: 60 min; for Stress resistance parameter, Temperature (° C.) 50: incubation at 50° C. for 60 min; for Stress resistance parameter, Osmotic pressure (mM) 10: low osmotic pressure 10 mM; for Stress resistance parameter, pH 3.5: pH 3.5, room temperature; for Stress resistance parameter, pH 10: pH 10, room temperature; for Stress resistance parameter, Temperature (° C.) 4: storage at 4° C. for one week. The method, boiled down: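 RSV F mRNA-vaccine mutants stress-treated: 4° C. for one week, 50° C. for 60 min, low or high osmotic pressure at room temperature for 60 min, acid or base at room temperature for 60 min. Binding to 3C12 (epitope Φ) then measured by ELISA against pre-F trimer standard, HRP anti-human IgG, OD 450/630 nm.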

Experimental findings from patent publication US12514920B1, “Respiratory syncytial virus mRNA vaccine, and preparation method therefor and use thereof” (Hangzhou Tianlong Pharmaceutical Co., Ltd., priority 2024, dated 2026) are described below.

Substitutions are numbered along the chain they refer to.

B1: YK-RSV-037 (protein)
chain: QNITEEFYQSTCSAVSKGYLGALRTGWCTSVITIELSNIKENKCNGTDAKVKLIKQELDKYKNAVTDLQLLMQSTPATGSGSAIASGVCVSKVLHLEGEVNKIKSALLSTNKAVVSLSNGVSVLTFKVLDLKNYIDKQLLPILNKQSCSIPNIETVIEFQQKNNRLLEITREFSVNAGVTTPVSTYMLTNSELLSLINDMPITNDQKKLMSNNVQIVRQQSYSIMSIIKEEVLAYVVQLPLYGVIDTPCWKLHTSPLCTTNTKEGSNICLTRTDRGWYCDNAGSVSFFPQAETCKVQSNRVFCDTMNSRTLPSEVNLCNVDIFNPKYDCKIMTSKTDVSSSVITSLGAIVSCYGKTKCTASNKNRGIIKTFSNGCDYVSNKGVDTVSVGNTLYYVNKQEGQSLYVKGEPIINFYDPLVFPSDEFDASISQVNEKINQSLAFIRKSDELLHNVNAGKSTTNIMITTIIIVIIVILLSLIAVGLLLY
In the case of B1, in the series on RSV F antibody (11A9), the “RSV F antibody (11A9) Epitope II (%) binding rate” value (shortened to “RSV F antibody … (%) binding rate”) is given as 86.9%. Besides, in series [1], the “RSV pre-F antibody (3C12) Epitope Φ (%) binding rate” value was determined as 79.0% and the “Φ/II (%)” value is given as 90.9%. Further, in series [2], the “Stress resistance parameter, Osmotic pressure (mM) 3000” value came to 0.21 ± 0.03; the “Stress resistance parameter, Temperature (° C.) 50” value came to 0.50 ± 0.06; the “Stress resistance parameter, Osmotic pressure (mM) 10” value (shortened to “Stress resistance parameter … (mM) 10”) is recorded as 0.54 ± 0.11; the “Stress resistance parameter, pH 3.5” value is 0.68 ± 0.10. Also, in series [2], the “Stress resistance parameter, pH 10” value was found to be 1.24 ± 0.11 and the “Stress resistance parameter, Temperature (° C.) 4” value was found to be 0.27 ± 0.07.

B2: YK-RSV-040 (protein)
chain: B1 chain with C28Y, T29C
Turning to B2, in the series on RSV F antibody (11A9), the “RSV F antibody … (%) binding rate” value was 92.0%. In series [1], the “RSV pre-F antibody (3C12) Epitope Φ (%) binding rate” value is on record as 84.3% and the “Φ/II (%)” value was determined as 91.6%. Also, in series [2], the “Stress resistance parameter, Osmotic pressure (mM) 3000” value worked out at 0.61 ± 0.09; the “Stress resistance parameter, Temperature (° C.) 50” value worked out at 0.91 ± 0.14; the “Stress resistance parameter … (mM) 10” value is 0.75 ± 0.13; the “Stress resistance parameter, pH 3.5” value worked out at 0.93 ± 0.09. In series [2], the “Stress resistance parameter, pH 10” value turned out to be 1.00 ± 0.23 and the “Stress resistance parameter, Temperature (° C.) 4” value was 0.38 ± 0.08.

B3: YK-RSV-045 (protein)
chain: B1 chain with C28Y, T75C, C89A, V236C
With B3, in the series with RSV F antibody (11A9), the “RSV F antibody … (%) binding rate” value stood at 86.0%. For the same molecule, in series [1], the “RSV pre-F antibody (3C12) Epitope Φ (%) binding rate” value was determined as 78.3% and the “Φ/II (%)” value worked out at 91.0%. Further, in series [2], the “Stress resistance parameter, Osmotic pressure (mM) 3000” value came to 0.46 ± 0.05; the “Stress resistance parameter, Temperature (° C.) 50” value worked out at 0.41 ± 0.03; the “Stress resistance parameter … (mM) 10” value is 0.57 ± 0.09; the “Stress resistance parameter, pH 3.5” value is 0.47 ± 0.09. Also, in series [2], the “Stress resistance parameter, pH 10” value amounted to 0.97 ± 0.07 and the “Stress resistance parameter, Temperature (° C.) 4” value was determined as 0.29 ± 0.02.
